In publication PMC3897949:

Target: PCAF HAT domain (amino acids 493-658), His-tagged (human), Q92831
Assay: SEC-MALS; protein at 2, 6 and 20 mg/ml on a size exclusion column (WTC-010S5); 50 mM phosphate buffer pH 7.0, 150 mM NaCl, 35°C; monomer to dimer
Conditions: remark: other sources report otherwise

B1: PCAF HAT domain (amino acids 493-658), His-tagged, Q92831 493-658 (domain or fragment)
chain: VIEFHVVGNSLNQKPNKKILMWLVGLQNVFSHQLPRMPKEYITRLVFDPKHKTLALIKDGRVIGGICFRMFPSQGFTEIVFCAVTSNEQVKGYGTHLMNHLKEYHIKHDILNFLTYADEYAIGYFKKQGFSKEIKIPKTKYVGYIKDYEGATLMGCELNPRIPYTE
stoichiometry N: 2
